Data as given in paper PMC12775124, “CUL4A-DDB1-DCAF10 is an N-recognin for N-terminally acetylated Src kinases” (Nature Communications, 2026).
Where a chain is given by its changes, count along the chain named. Numbers in names are those of the source.

B1: FLAG-DCAF10: FLAG-DCAF10 overexpression in HeLa cells (protein, UniProt Q5QP82 1-559, looked up)
DDB1- and CUL4-associated …: MFPFGPHSPGGDGSAGAGAEEPTPHEGQAAATGPPSPLHPGADATHPPPPARSPRRPGAPSLSPAPRSGELGLPGAPESSTASAPGEPSPPSPPCRRPGPDCRAKSRGRHGLGAGLGGPGARLFGWLKERSLGRGLFVDPARDNFRTMTSLYGSIHPADSVYLSTRTHGAVFNLEYSPDGSVLTVACEQTEVLLFDPISSKHIKTLSEAHEDCVNNIRFLDNRLFATCSDDTTIALWDLRKLNTKVCTLHGHTSWVKNIEYDTNTRLLVTSGFDGNVIIWDTNRYTEDGCPHKKFFHTRFLMRMRLTPDCSKMLISTSSGYLLILHDLDLTKSLEVGSYPILRARRTTSSSDLTTSSSSSGPRVSGSPCHHSDSNSSEKHMSRASQREGVSPRNSLEVVTPEVLGESDHGNCITSLQLHPKGWATLLRCSSNSDDEECTCVYEFQEGAPVRPVSPRCSLRLTHYIEEANVGRGYIKELCFSPDGRMISSPHGYGIRLLGFDKQCSELVDCLPKEASPLRVIRSLYSHNDVVLTTKFSPTHCQIASGCLSGRVSLYQPKF
modifications: FLAG tag
notes: FLAG-DCAF10 overexpression in HeLa cells
B2: DCAF10 triple mutant: DCAF10 triple mutant (F172G, K257A, and I475G) in E3 complex (protein)
chain: B1 DDB1- and CUL4-associated … with F172G, K257A, I475G
modifications: left off: MBP (as in the WT complex; not said for the mutant), end not stated, state not stated

Key:
[1] = tested on: THOC7; experiment: THOC7 level after FLAG-DCAF10 overexpression; format: cell-based, human; conditions: HeLa, NMT1/2 KD 72 h, FLAG-DCAF10 overexpression 24 h
Experimental: (§1) 124 Supplementary Fig. 5. NMT1/2 knockdown leads to an increased turnover of SFKs
(§2) 125 and overexpression of DCAF10 reduces SFK levels after NMT1/2 knockdown.
(§3) 126 a) HeLa cells were treated with NMT1/2 siRNA for 72 h or left untreated in combination
(§4) 127 with FLAG-DCAF10 overexpression for 24 h. Representative WBs are shown. b-c) Left:
(§5) 128 WB quantifications with and without NMT1/2 siRNA of Lyn (b) and THOC7 (c)
(§6) Right: Fold change of Lyn (b) and THOC7 (c) after DCAF10
(§7) 130 overexpression. Untreated: purple; with NMT1/2 RNAi: blue. Individual data points are
(§8) 131 indicated (n = 2 or 3 independent biological replicates). MG132 = proteasome inhibitor;
(§9) 132 CHX = cycloheximide translational inhibitor. d) HeLa cells were treated for 72 h with and
(§10) 133 without NMT1/2 siRNA and treated with cycloheximide or MG132 for the indicated
(§11) 134 periods of time. Representative WBs are shown. Filled circles indicate treatment; empty
(§12) 135 circles indicate no treatment. e-h) Fold-change analysis of protein expression levels under
(§13) 136 the indicated conditions. Left: fold change after 8 h cycloheximide treatment of (e) Lyn,
(§14) 137 (f) Fyn, (g) Src and (h) THOC7. Right: fold change after 4 h MG132 treatment of (e) Lyn,
(§15) Untreated: purple; with NMT1/2 siRNA: blue (n = 3 […]
(§16) 412 serum (FBS). Cells were counted and diluted to 100,000 cells/mL. […]
(§17) 433 fraction was measured by MS (see Mass spectrometry measurements and raw file […]

[2] = tested on: Lyn; experiment: Lyn level after FLAG-DCAF10 overexpression; format: cell-based, human; conditions: HeLa, NMT1/2 KD 72 h, FLAG-DCAF10 overexpression 24 h
Experimental: as §1, §2, §3, §4, §5, §6, §7, §8, §9, §10, §11, §12, §13, §14, §15, §16, §17

[3] = tested on: Src; experiment: In vitro ubiquitination of immunoprecipitated Src; format: biochemical, human; conditions: DCAF10 pocket mutant complex
Excerpt: (§18) Having established cellular regulation by DCAF10 under reduced N-myristoylation, we aimed to test whether CUL4A-DDB1-DCAF10 directly ubiquitinates SFKs. […] As we expect NMT1/2 depletion to cause a destabilization of SFKs, their equal or even greater ubiquitination in IPs from untreated cells relative to NMT1/2-depleted cells was unanticipated. We speculate that (i) Nt-acetylated SFKs may degrade rapidly, preventing their accumulation upon NMT1/2 depletion; (ii) an acetylated fraction of SFKs may exist under physiological conditions; (iii) DCAF10 might recognize additional surfaces.
(§19) Reactions contained E1, UBCH5B (E2), ubiquitin, Mg-ATP in ligation buffer and were incubated with bead-bound substrates, followed by washing and immunoblot detection of ubiquitinated species (anti-ubiquitin), with loading controls (anti-Lyn, -Fyn, -Src or -GFP) (n = 3 independent enzymatic assays). Complete reagent lists, complex preparation, substrate IP conditions, wash buffers, and gel/blot parameters are provided in the Supplementary Methods and Tables.
(§20) 357 (v/v) glycerol, 2 mM TCEP, supplemented with Protease Inhibitor Cocktail), and lysed
(§21) 358 by sonication. Lysates were cleared by centrifugation at 28,000 rpm for 45 min at 4 °C […]
(§22) 382 EDTA, and loaded on a gradient gel (4–15%). Ubiquitination of substrates was assessed
(§23) 383 by WB using an anti-ubiquitin antibody. Equal substrate loading was evaluated by anti- […]

[4] = tested on: Lyn; experiment: In vitro ubiquitination of immunoprecipitated Lyn; format: biochemical, human; conditions: DCAF10 pocket mutant complex
Excerpt: as §18, §19, §20, §21, §22, §23

[5] = tested on: Fyn; experiment: In vitro ubiquitination of immunoprecipitated Fyn; format: biochemical, human; conditions: DCAF10 pocket mutant complex
Excerpt: as §18, §19, §20, §21, §22, §23

Molecule | THOC7 level (in words) [1] | Lyn level, fold decrease compared to control cells [2] | Src ubiquitination (in words) [3] | Lyn ubiquitination (in words) [4] | Fyn ubiquitination (in words) [5]
B1 | remained unchanged | ~ 2.1 fold |  |  | 
B2 |  |  | Src ubiquitination was unaffected by the mutations | abolished ubiquitination of Lyn and Fyn | abolished ubiquitination of Lyn and Fyn
